Assay results: US20120087949, “OLIGONUCLEOTIDE MICELLES” (University of Florida Research Foundation, Inc., published 2012)

Columns and labels:
[1] = system: unidentified cell-surface target of sgc8 on CCRF-CEM cells; conditions: 5'-diacyl lipid-(PEG)4, membrane anchored; CITED; value for sgc8 aptamer; CEM cell aggregation with lipo-sgc8-TMR shown here (FIG. 13A); cited from earlier work
[2] = target: T1, IGHM (immunoglobulin heavy mu chain), on Ramos cells (UniProt P01871 P01871:1-474); assay: flow; Ramos cells; based on lipid unit concentration; 0.116 nM if 1000 copies per micelle; conditions: tags: endogenous on Ramos cells (ATCC CRL-1596); chain copies: 2; label: 3'-FAM
T1 sequence (P01871 whole entry, one chain of several): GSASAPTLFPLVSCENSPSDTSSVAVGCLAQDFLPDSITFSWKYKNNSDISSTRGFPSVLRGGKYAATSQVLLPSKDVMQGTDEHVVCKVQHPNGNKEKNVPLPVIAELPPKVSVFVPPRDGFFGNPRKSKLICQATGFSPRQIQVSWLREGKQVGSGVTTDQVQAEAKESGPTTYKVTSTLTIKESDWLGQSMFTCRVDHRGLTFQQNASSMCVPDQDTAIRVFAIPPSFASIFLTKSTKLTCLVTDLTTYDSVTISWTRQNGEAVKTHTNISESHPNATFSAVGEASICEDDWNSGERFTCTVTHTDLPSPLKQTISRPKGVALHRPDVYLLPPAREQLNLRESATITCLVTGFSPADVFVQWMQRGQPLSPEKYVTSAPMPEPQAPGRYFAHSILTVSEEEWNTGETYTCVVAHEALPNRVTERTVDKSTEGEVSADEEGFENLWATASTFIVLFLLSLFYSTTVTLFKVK

[3] = target: T1, IGHM (immunoglobulin heavy mu chain), …; assay: flow; free TDO5 on Ramos cells; compared with micelle; elsewhere quoted as 74 nM (p179, CITED); conditions: tags: endogenous on Ramos cells (ATCC CRL-1596); chain copies: 2; label: FITC

TTTTTTTATCTAACTGCTGCGCCGCCGGGAAAATACTGTACGGTTAGA [Lipo-sgc8-TMR]
Kd [1]: 0.8 nM

AACACCGGGAGGATAGTTCGGTGGCTGTTCAGGGTCTCCTCCCGGTGA (ssDNA, 5'-diacyl lipid tail-(CH2CH2O)24; self-assembled micelle) [TDO5-micelle (lipid-TDO5)]
Kd [2]: 116 nM

AACACCGGGAGGATAGTTCGGTGGCTGTTCAGGGTCTCCTCCCGGTGA (ssDNA) [TDO5]
Kd [3]: 88 nM
